Results reported in patent publication US20190263931A1 (IMMUNOMETABOLISM DEVELOPMENT, published 2019).

T1: human MCT1 (monocarboxylate transporter 1, SLC16A1) (human, UniProt P53985 1-500)
T1 construct: Multipass membrane transporter; also called human MCT1 protein
T1 sequence: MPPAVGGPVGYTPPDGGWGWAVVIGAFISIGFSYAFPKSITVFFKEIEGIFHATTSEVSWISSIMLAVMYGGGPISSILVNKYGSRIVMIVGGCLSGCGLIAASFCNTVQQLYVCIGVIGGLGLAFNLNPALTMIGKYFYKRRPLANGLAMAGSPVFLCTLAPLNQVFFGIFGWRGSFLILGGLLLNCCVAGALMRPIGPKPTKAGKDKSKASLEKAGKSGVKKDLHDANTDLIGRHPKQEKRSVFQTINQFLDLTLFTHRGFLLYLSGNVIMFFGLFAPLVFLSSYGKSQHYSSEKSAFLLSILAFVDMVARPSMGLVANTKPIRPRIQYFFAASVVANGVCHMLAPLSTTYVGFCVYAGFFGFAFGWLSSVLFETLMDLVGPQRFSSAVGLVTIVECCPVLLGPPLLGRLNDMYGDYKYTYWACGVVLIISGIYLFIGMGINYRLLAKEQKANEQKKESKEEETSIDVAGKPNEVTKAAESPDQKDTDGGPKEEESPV

T2: rat MCT1 (rat, UniProt P53987 1-494)
T2 construct: whole, on cells; also called rodent MCT1
T2 sequence (looked up): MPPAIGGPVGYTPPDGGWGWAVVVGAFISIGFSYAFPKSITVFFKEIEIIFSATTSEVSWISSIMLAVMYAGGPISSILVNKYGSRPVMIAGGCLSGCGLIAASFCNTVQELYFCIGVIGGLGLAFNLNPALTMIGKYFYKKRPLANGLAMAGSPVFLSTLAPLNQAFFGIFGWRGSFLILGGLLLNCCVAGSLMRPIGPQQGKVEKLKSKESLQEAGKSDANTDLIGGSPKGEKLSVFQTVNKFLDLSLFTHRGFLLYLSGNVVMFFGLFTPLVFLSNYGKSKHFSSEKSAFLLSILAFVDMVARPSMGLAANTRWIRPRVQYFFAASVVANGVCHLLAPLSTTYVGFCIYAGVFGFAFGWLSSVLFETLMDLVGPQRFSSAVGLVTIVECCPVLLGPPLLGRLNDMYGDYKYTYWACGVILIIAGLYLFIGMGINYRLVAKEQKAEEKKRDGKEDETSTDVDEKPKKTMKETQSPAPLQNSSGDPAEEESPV


Columns and labels:
[1] = target: T1, human MCT1 (monocarboxylate transporter …); assay: flow cytometry, MFI on 293T WT (MCT1+ 293) cells, full Mabs
[2] = target: T1, human MCT1 (monocarboxylate transporter …); assay: Kinetic Exclusion Assay (KinExA)
rat MCT1 = target: T2, rat MCT1; assay: flow cytometry, rat PBMC (live gate), resting and stimulated

binding result [1] | Kd [2] | binding result (rat MCT1) | Binder
no binding |  |  | LM-187 (antibody, V domains shown) VH: AVTLDESGGGLQTPGGLVSLVCKASGFGFTNYEIHWVRQAPGKGLEWVGFVSSGGAYADYAPAVKGRATITRDNGQSTVRLQLVNLRAEDTGTYYCTRAPCGSWCGWGYTGVDNIDAWGHGTEVIVSS VL: ALTQPSSVSANPGGIVKITCSGGGRGSHYGWYQQKSPGSAPVTLIYANNQRPSDIPSRFSGSESGSTATLTITGVQAEDEAVYFCGGYDSGATFGAGTTLTVL
 | 6.3 nM | no binding | MCT1 Ab1 (antibody, V domains shown, also called INX310; Rat Anti-MCT1 antibody) VH: QVQLKATGPGLVQPTQTLSITCTVSGFSLTNYHLQWVRQTPGKGLEWMGFIRSSGNTEYNSEFKSRLSISRDTSKNQVFLKMNSLKTDDTGVYYCARNSWYHGTYYSPGYYVMDAWGQGASVTVSS VL: NIHLTQSPSLLSASVGDRVTLSCKGSQNINNYLAWFQQKFGETPKLLIYNRHNLQTGIPSRFSGSGSGTDYTLTINSLQPEDVATYFCYQYSDGYTFGAGTKLELK
